Sequences and labels used below:
B1: S. cerevisiae Abp1 (full length; SH3 domain 535-592 mutated) / Hua2 (parent)
chain 1: MALEPIDYTTHSREIDAEYLKIVRGSDPDTTWLIISPNAKKEYEPESTGSSFHDFLQLFDETKVQYGLARVSPPGSDVEKIIIIGWCPDSAPLKTRASFAANFAAVANNLFKGYHVQVTARDEDDLDENELLMKISNAAGARYSIQTSSKQQGKASTPPVKKSFTPSKSPAPVSKKEPVKTPSPAPAAKISSRVNDNNDDDDWNEPELKERDFDQAPLKPNQSSYKPIGKIDLQKVIAEEKAKEDPRLVQKPTAAGSKIDPSSDIANLKNESKLKRDSEFNSFLGTTKPPSMTESSLKNDDDKVIKGFRNEKSPAQLWAERKAKQNSGNAETKAEAPKPEVPEDEPEGEPDVKDLKSKFEGLAASEKEEEEMENKFAPPPKKSEPTIISPKPFSKPQEPVKAEEAEQPKTDYKKIGNPLPGMHIEADNEEEPEENDDDWDDDEDEAAQPPLPSRNVASGAPVQKEEPEQEEIAPSLPSRNSIPAPKQEEAPEQAPEEEIEEEAEEAAPQLPSRSSAAPPPPPRRATPEKKPKENPWATAEYDYDAAEDNELTFVENDKIINIEFVDDDWWLGELEKDGSKGLFPSNYVSLGN
chain 2: MQQTKFGKMYLDHDSVVEYSEDEIVEADRITLGYKKRLSMIENQMRHLLEDFSLDVQQIEPILADLQKYYDAFLQLLQKRNKSLQCKRSTHQPVPSPMNSQTSTNAKVNLSGKLMKFQLNSVQKFDEENILRILQNKIEFEHYFQIDKGKKQKVLLLAVYQCLNGPTRLHKVLNIEGIIHNNSIRTILGKQVSSSKWTVFLYDVKLVLLAHRQDVPNLETSKMIVRYGDLFPCALYFKDHTAY

The first experiment covers variants of B1. Description: DHFR protein-fragment complementation in yeast (Abp1-DHFR F[1,2] x partner-DHFR F[3]), deep mutational scanning, second methotrexate selection vs reference. Conditions: with Hua2; S. cerevisiae, DHFR-PCA selection in liquid with methotrexate at 30 C, two 72 h selections (the score uses the second); reference = the pre-selection culture; not an affinity; value at the no-binding floor (a bound); scale: DMS score: mean over two replicates of log2(f_test/f_ref + 0.5)/ln 2, minus the synonymous-codon median.
Regarding chain 1 I560P, the screen value was less than -3.06.

chain 1 L551Y: the screen value is less than -3.06.

Turning to chain 1 L551D, the screen value is less than -3.06.

Consider chain 1 L551G, for which the screen value was less than -3.06.

chain 1 L551S: the screen value is less than -3.06.

For the variant chain 1 L551K, the screen value is less than -3.06.

In the case of chain 1 L551A, the screen value was -3.04.

Take chain 1 L551H: the screen value was -2.98.

With chain 1 L551W, the screen value was less than -3.06.

Turning to chain 1 N561F, the screen value was less than -3.06.

With chain 1 N561V, the screen value is -3.02.

As to chain 1 N561L, the screen value was -3.02.

chain 1 N561W: the screen value is less than -3.06.

Take chain 1 N561P: the screen value was less than -3.06.

As for chain 1 G578W, the screen value is -3.01.

As for chain 1 G578P, the screen value was less than -3.06.

On to chain 1 G578I, for which the screen value was less than -3.06.

For chain 1 W570Q, the screen value is -3.01.

As to chain 1 W570E, the screen value is -3.03.

On to chain 1 W570K, for which the screen value is less than -3.06.

chain 1 W570P: the screen value was less than -3.06.

Regarding chain 1 W570M, the screen value was -3.02.

With chain 1 W570D, the screen value was less than -3.06.

Turning to chain 1 W570T, the screen value is less than -3.06.

chain 1 W570A: the screen value is less than -3.06.

Take chain 1 W570H: the screen value is less than -3.06.

For chain 1 W570I, the screen value is less than -3.06.

In the case of chain 1 W570V, the screen value is -3.02.

In the case of chain 1 L582D, the screen value is -2.99.

Regarding chain 1 L582E, the screen value was -3.03.

As for chain 1 L582A, the screen value is -3.04.

For chain 1 L582G, the screen value is -3.

Regarding chain 1 L582T, the screen value is -3.01.

For the variant chain 1 I559D, the screen value was -3.04.

In the case of chain 1 I559Q, the screen value is less than -3.06.

Take chain 1 I559E: the screen value is -3.

As for chain 1 I559P, the screen value is less than -3.06.

Consider chain 1 I559K, for which the screen value is less than -3.06.

In the case of chain 1 I559C, the screen value is -3.01.

For the variant chain 1 I559R, the screen value was -3.03.

Take chain 1 I559A: the screen value was less than -3.06.

Take chain 1 I559H: the screen value is less than -3.06.

As to chain 1 I559W, the screen value is less than -3.06.

As for chain 1 I559G, the screen value is -3.05.

For the variant chain 1 Y541P, the screen value is less than -3.06.

Take chain 1 V588K: the screen value is -3.04.

Regarding chain 1 V588Q, the screen value was -3.02.

As for chain 1 V588H, the screen value is less than -3.06.

chain 1 V588Y: the screen value was less than -3.06.

As to chain 1 V588R, the screen value is less than -3.06.

Turning to chain 1 V588N, the screen value is less than -3.06.

For the variant chain 1 V588P, the screen value is less than -3.06.

As to chain 1 V588S, the screen value is less than -3.06.

With chain 1 L590N, the screen value is less than -3.06.

Turning to chain 1 L590G, the screen value was -3.05.

Turning to chain 1 L590D, the screen value was less than -3.06.

Take chain 1 W569A: the screen value was less than -3.06.

For the variant chain 1 W569I, the screen value was -2.99.

With chain 1 W569N, the screen value is less than -3.06.

On to chain 1 W569P, for which the screen value was less than -3.06.

Regarding chain 1 W569D, the screen value is -3.03.

As to chain 1 W569T, the screen value is less than -3.06.

On to chain 1 W569S, for which the screen value was -2.99.

Turning to chain 1 W569H, the screen value is -3.05.

In the case of chain 1 L574D, the screen value was less than -3.06.

With chain 1 L574W, the screen value was -3.03.

As for chain 1 L574E, the screen value was less than -3.06.

On to chain 1 L574F, for which the screen value is -3.03.

chain 1 G572K: the screen value was less than -3.06.

For chain 1 G572L, the screen value is -3.04.

Turning to chain 1 G572Q, the screen value is less than -3.06.

For chain 1 G572T, the screen value is -3.04.

Consider chain 1 G572I, for which the screen value is less than -3.06.

On to chain 1 G572A, for which the screen value is -3.02.

chain 1 G572D: the screen value is less than -3.06.

Take chain 1 G572Y: the screen value is less than -3.06.

Consider chain 1 G572S, for which the screen value was less than -3.06.

Turning to chain 1 G572F, the screen value was less than -3.06.

As for chain 1 G572P, the screen value was less than -3.06.

As for chain 1 G572M, the screen value is less than -3.06.

chain 1 G572C: the screen value was less than -3.06.

With chain 1 G572H, the screen value is less than -3.06.

chain 1 F583G: the screen value is less than -3.06.

In the case of chain 1 F583H, the screen value was less than -3.06.

With chain 1 F583K, the screen value was less than -3.06.

Turning to chain 1 F583P, the screen value is less than -3.06.

chain 1 F583R: the screen value was -3.02.

Take chain 1 F583W: the screen value is less than -3.06.

Consider chain 1 F583A, for which the screen value is less than -3.06.

Consider chain 1 F583N, for which the screen value was less than -3.06.

In the case of chain 1 F583E, the screen value was less than -3.06.

As to chain 1 F583M, the screen value was less than -3.06.

As to chain 1 F583T, the screen value is less than -3.06.

For the variant chain 1 F583D, the screen value is less than -3.06.

With chain 1 F583Q, the screen value was less than -3.06.

With chain 1 G581N, the screen value was less than -3.06.

Regarding chain 1 G581I, the screen value was less than -3.06.

As for chain 1 G581K, the screen value was -3.01.

For chain 1 G581P, the screen value is less than -3.06.

chain 1 G581H: the screen value is less than -3.06.

Regarding chain 1 G581L, the screen value was less than -3.06.

Regarding chain 1 G581Q, the screen value is less than -3.06.

With chain 1 G581M, the screen value is less than -3.06.

As for chain 1 G581E, the screen value is -3.02.

Consider chain 1 G581W, for which the screen value is less than -3.06.

For the variant chain 1 G581T, the screen value is less than -3.06.

On to chain 1 G581F, for which the screen value was -3.01.

chain 1 G581Y: the screen value was less than -3.06.

In the case of chain 1 V554P, the screen value is -3.04.

In the case of chain 1 T552W, the screen value is less than -3.06.

chain 1 T552L: the screen value is -3.04.

Turning to chain 1 I562R, the screen value was less than -3.06.

On to chain 1 I562G, for which the screen value is -3.04.

Consider chain 1 I562A, for which the screen value was less than -3.06.

Take chain 1 I562D: the screen value was less than -3.06.

With chain 1 I562Y, the screen value was -3.03.

Consider chain 1 I562Q, for which the screen value was less than -3.06.

For chain 1 I562H, the screen value is less than -3.06.

Turning to chain 1 I562E, the screen value is less than -3.06.

As to chain 1 I562P, the screen value is less than -3.06.

For the variant chain 1 I562K, the screen value is -3.03.

Regarding chain 1 Y587E, the screen value was -2.98.

As for chain 1 Y587G, the screen value is -3.

For chain 1 Y587P, the screen value is less than -3.06.

In the case of chain 1 F553E, the screen value is less than -3.06.

For chain 1 F553W, the screen value is less than -3.06.

In the case of chain 1 F553T, the screen value is -3.01.

For chain 1 F553G, the screen value is -3.04.

chain 1 F553A: the screen value is -3.03.

chain 1 F553H: the screen value is less than -3.06.

Take chain 1 F553P: the screen value was less than -3.06.

Consider chain 1 F553Q, for which the screen value is less than -3.06.

In the case of chain 1 F553N, the screen value was less than -3.06.

With chain 1 F553D, the screen value was less than -3.06.

For the variant chain 1 F553K, the screen value is less than -3.06.

Take chain 1 F553R: the screen value was less than -3.06.

As for chain 1 E563P, the screen value was -3.04.

Regarding chain 1 Y543L, the screen value is -3.02.

Take chain 1 Y543V: the screen value is less than -3.06.

For the variant chain 1 Y543M, the screen value was less than -3.06.

Take chain 1 Y543E: the screen value is less than -3.06.

Consider chain 1 Y543R, for which the screen value was -3.05.

Take chain 1 Y543T: the screen value is -3.01.

With chain 1 Y543G, the screen value is -3.04.

On to chain 1 Y543P, for which the screen value is less than -3.06.

In the case of chain 1 Y543A, the screen value was less than -3.06.

As to chain 1 Y543I, the screen value was less than -3.06.

As for chain 1 S585L, the screen value was -2.99.

As to chain 1 S585Y, the screen value is less than -3.06.

chain 1 S585D: the screen value was -3.03.

As for chain 1 S585F, the screen value is -2.99.

On to chain 1 S585W, for which the screen value is -3.01.

chain 1 K580P: the screen value is -2.98.

As for chain 1 P584F, the screen value was -3.

Consider chain 1 P584Q, for which the screen value is -3.01.

For the variant chain 1 P584D, the screen value was less than -3.06.

In the case of chain 1 P584V, the screen value is less than -3.06.

With chain 1 P584G, the screen value is less than -3.06.

As to chain 1 P584C, the screen value is -3.02.

With chain 1 P584K, the screen value is less than -3.06.

Regarding chain 1 P584I, the screen value was less than -3.06.

Consider chain 1 P584E, for which the screen value is less than -3.06.

chain 1 P584W: the screen value was -3.02.

Regarding chain 1 P584M, the screen value is less than -3.06.

For the variant chain 1 E573P, the screen value is less than -3.06.

Still in this experiment, the particulars now being: with Hua2; S. cerevisiae, DHFR-PCA selection in liquid with methotrexate at 30 C, two 72 h selections (the score uses the second); reference = the pre-selection culture; value at the no-binding floor (a bound); scale: DMS score: mean over two replicates of log2(f_test/f_ref + 0.5)/ln 2, minus the synonymous-codon median.
With chain 1 D567C, the screen value is less than -3.06.

Consider chain 1 D567R, for which the screen value was less than -3.06.

As to chain 1 D567S, the screen value is -3.02.

Turning to chain 1 D567T, the screen value is -3.

As to chain 1 D567P, the screen value is less than -3.06.

For chain 1 D567K, the screen value was -3.03.

For the variant chain 1 D567I, the screen value is less than -3.06.

With chain 1 E547R, the screen value is -3.04.

For the variant chain 1 Y541R, the screen value is -3.01.

On to chain 1 W569M, for which the screen value is -2.99.

With chain 1 W569K, the screen value is -3.02.

For the variant chain 1 N586R, the screen value was -2.99.

On to chain 1 D568I, for which the screen value was less than -3.06.

Turning to chain 1 D568R, the screen value is less than -3.06.

Turning to chain 1 D568L, the screen value was less than -3.06.

With chain 1 D568K, the screen value was less than -3.06.

chain 1 D568Q: the screen value was -3.01.

chain 1 D568M: the screen value is less than -3.06.

As for chain 1 S585Q, the screen value was less than -3.06.

As for chain 1 D566C, the screen value is less than -3.06.

For chain 1 D566F, the screen value was -2.99.

As for chain 1 D566S, the screen value is less than -3.06.

For chain 1 D566R, the screen value was -3.03.

Source of the values: article PMC7954794, “Protein context shapes the specificity of SH3 domain-mediated interactions in vivo” (Nature Communications, 2021).
